# Patent US8524460
# T1: PSCA-glutathione S-transferase (GST) fusion protein (human) (UniProt O43653)
# T1 sequence: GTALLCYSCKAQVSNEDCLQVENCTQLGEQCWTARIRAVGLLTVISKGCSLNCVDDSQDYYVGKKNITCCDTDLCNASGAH
# T2: M (46-109)
# T2 sequence (O43653 whole entry, species assumed, looked up): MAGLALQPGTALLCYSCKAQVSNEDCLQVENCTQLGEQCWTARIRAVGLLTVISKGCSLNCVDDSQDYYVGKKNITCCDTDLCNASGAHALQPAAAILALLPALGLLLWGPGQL
# Legend:
# Assay in all cases: ELISA: GST-PSCA fusion protein 50 ng/well, hybridoma supernatant, anti-mouse-HRP, TMB; mean of duplicates
# [1] = substrate: T3, C (85-123)
# T3 sequence (O43653 whole entry, species assumed, looked up): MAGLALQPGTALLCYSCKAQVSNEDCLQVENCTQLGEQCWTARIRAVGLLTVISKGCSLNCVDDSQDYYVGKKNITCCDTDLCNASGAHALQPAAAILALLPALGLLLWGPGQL
# [2] = substrate: T4, N (2-50)
# T4 sequence (O43653 whole entry, species assumed, looked up): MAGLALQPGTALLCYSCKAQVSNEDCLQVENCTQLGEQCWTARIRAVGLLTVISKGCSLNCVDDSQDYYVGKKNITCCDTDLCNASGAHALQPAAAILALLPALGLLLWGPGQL
# [3] = biological target: T1, PSCA-glutathione S-transferase (GST) fusion protein (human)
# M (46-109) = biological target: T2, M (46-109)
OD 450 nm [1] [OD 450 nm],OD 450 nm [2] [OD 450 nm],OD 450 nm [3] [OD 450 nm],OD 450 nm (M (46-109)) [OD 450 nm],Binder
0.001,0.493,1.05,,"anti-PSCA monoclonal antibody 4A10 (antibody, part only; not given: light chain, mouse IgG2a, V domains shown, part only) VH: LVATASDVHSQVQLQQPGSELVRPGTSVKLSCKASGYTFSSYWMHWVKQRPGQGLEWIGNIDPGSGYTNYAENLKTKATLTVDTSSSTAYMQLSSLTSEDSAVYYCTSRSTMITTGFAYWGQGTLVTVSAATTTAPSVYPLA"
0.001,1.03,1.07,0.002,"anti-PSCA monoclonal antibody 2H9 (antibody, part only; not given: light chain, mouse IgG1, part only) VH: NDFGLSWVFIIVLLKGVRSEVRLEESGGGWVQPGGSMKLSCVASGFTFSNYWMTWVRQSPEKGLEWVAEIRLRSENYATHYAESVKGKFTISRDDSRSRLYLQMNNLRPEDSGIYYCTDGLGRPNWGQGTLVTVSAAKTTPPSVYPLAPCV"
0.003,0.004,1.49,1.27,"anti-PSCA monoclonal antibody 1G8 (antibody, part only; not given: light chain, mouse IgG1, V domains shown, part only) VH: CFFLMAVVIGVNSEVQLQQSGAELVRSGASVKLSCTASGFNIKDYYIHWVNQRPDQGLEWIGWIDPENGDTEFVPKFQGKATMTADIFSNTAYLHLSSLTSEDTAVYYCKTGGFWGQGTLVTVSAAKTTPPSVYPL"
